# Measured values from the Human Domainome abundance scans (Beltran et al. 2025).
# ± gives the uncertainty stated by the source.
# B1: Zinc finger MYM-type protein 3, residues 405 to 444; numbered along this chain, Q14202 (parent)
# chain: DATRCSICQKTGEVLHEVSNGSVVHRLCSDSCFSKFRANK
# Variants of: B1
# Assay: abundance fitness (aPCA) (normalised: wild type 0, dead -1); higher = more abundant; growth selection in yeast, the domain comes from the species named
# Conditions: Homo sapiens
row,Variant,abundance fitness
1,DATRCSICMKTGEVLHEVSNGSVVHRLCSDSCFSKFRANK [Q9M],-0.123 ± 0.08
2,DATRCSICPKTGEVLHEVSNGSVVHRLCSDSCFSKFRANK [Q9P],-0.606 ± 0.075
3,DATRCSICRKTGEVLHEVSNGSVVHRLCSDSCFSKFRANK [Q9R],-0.288 ± 0.054
4,DATRCSICSKTGEVLHEVSNGSVVHRLCSDSCFSKFRANK [Q9S],-0.129 ± 0.057
5,DATRCSICTKTGEVLHEVSNGSVVHRLCSDSCFSKFRANK [Q9T],-0.195 ± 0.074
6,DATRCSICVKTGEVLHEVSNGSVVHRLCSDSCFSKFRANK [Q9V],-0.803 ± 0.063
7,DATRCSICWKTGEVLHEVSNGSVVHRLCSDSCFSKFRANK [Q9W],-0.234 ± 0.066
8,DATRCSICYKTGEVLHEVSNGSVVHRLCSDSCFSKFRANK [Q9Y],-0.014 ± 0.27
9,DATRCSICQATGEVLHEVSNGSVVHRLCSDSCFSKFRANK [K10A],-0.293 ± 0.061
10,DATRCSICQCTGEVLHEVSNGSVVHRLCSDSCFSKFRANK [K10C],-0.367 ± 0.07
11,DATRCSICQDTGEVLHEVSNGSVVHRLCSDSCFSKFRANK [K10D],-0.49 ± 0.1
12,DATRCSICQETGEVLHEVSNGSVVHRLCSDSCFSKFRANK [K10E],-0.088 ± 0.063
13,DATRCSICQFTGEVLHEVSNGSVVHRLCSDSCFSKFRANK [K10F],-0.595 ± 0.46
14,DATRCSICQGTGEVLHEVSNGSVVHRLCSDSCFSKFRANK [K10G],-0.09 ± 0.052
15,DATRCSICQITGEVLHEVSNGSVVHRLCSDSCFSKFRANK [K10I],-0.417 ± 0.11
16,DATRCSICQLTGEVLHEVSNGSVVHRLCSDSCFSKFRANK [K10L],-0.273 ± 0.056
17,DATRCSICQMTGEVLHEVSNGSVVHRLCSDSCFSKFRANK [K10M],-0.232 ± 0.083
18,DATRCSICQNTGEVLHEVSNGSVVHRLCSDSCFSKFRANK [K10N],-0.559 ± 0.17
19,DATRCSICQPTGEVLHEVSNGSVVHRLCSDSCFSKFRANK [K10P],-0.877 ± 0.1
20,DATRCSICQQTGEVLHEVSNGSVVHRLCSDSCFSKFRANK [K10Q],-0.208 ± 0.071
21,DATRCSICQRTGEVLHEVSNGSVVHRLCSDSCFSKFRANK [K10R],-0.098 ± 0.052

row,Variant,abundance fitness
1,DATRCSICQSTGEVLHEVSNGSVVHRLCSDSCFSKFRANK [K10S],-0.231 ± 0.06
2,DATRCSICQTTGEVLHEVSNGSVVHRLCSDSCFSKFRANK [K10T],-0.277 ± 0.079
3,DATRCSICQVTGEVLHEVSNGSVVHRLCSDSCFSKFRANK [K10V],-0.649 ± 0.074
4,DATRCSICQWTGEVLHEVSNGSVVHRLCSDSCFSKFRANK [K10W],-0.479 ± 0.06
5,DATRCSICQYTGEVLHEVSNGSVVHRLCSDSCFSKFRANK [K10Y],-0.436 ± 0.16
6,DATRCSICQKAGEVLHEVSNGSVVHRLCSDSCFSKFRANK [T11A],-0.27 ± 0.06
7,DATRCSICQKCGEVLHEVSNGSVVHRLCSDSCFSKFRANK [T11C],-0.519 ± 0.12
8,DATRCSICQKDGEVLHEVSNGSVVHRLCSDSCFSKFRANK [T11D],-0.104 ± 0.11
9,DATRCSICQKFGEVLHEVSNGSVVHRLCSDSCFSKFRANK [T11F],-0.221 ± 0.15
10,DATRCSICQKGGEVLHEVSNGSVVHRLCSDSCFSKFRANK [T11G],-0.127 ± 0.055
11,DATRCSICQKHGEVLHEVSNGSVVHRLCSDSCFSKFRANK [T11H],0.088 ± 0.12
12,DATRCSICQKIGEVLHEVSNGSVVHRLCSDSCFSKFRANK [T11I],-0.203 ± 0.23
13,DATRCSICQKKGEVLHEVSNGSVVHRLCSDSCFSKFRANK [T11K],-0.354 ± 0.088
14,DATRCSICQKLGEVLHEVSNGSVVHRLCSDSCFSKFRANK [T11L],-0.116 ± 0.066
15,DATRCSICQKNGEVLHEVSNGSVVHRLCSDSCFSKFRANK [T11N],-0.14 ± 0.089
16,DATRCSICQKPGEVLHEVSNGSVVHRLCSDSCFSKFRANK [T11P],-0.499 ± 0.078
17,DATRCSICQKQGEVLHEVSNGSVVHRLCSDSCFSKFRANK [T11Q],-0.157 ± 0.077
18,DATRCSICQKRGEVLHEVSNGSVVHRLCSDSCFSKFRANK [T11R],-0.287 ± 0.058
19,DATRCSICQKSGEVLHEVSNGSVVHRLCSDSCFSKFRANK [T11S],-0.315 ± 0.069
20,DATRCSICQKVGEVLHEVSNGSVVHRLCSDSCFSKFRANK [T11V],-0.452 ± 0.064
21,DATRCSICQKWGEVLHEVSNGSVVHRLCSDSCFSKFRANK [T11W],-0.627 ± 0.072

row,Variant,abundance fitness
1,DATRCSICQKTDEVLHEVSNGSVVHRLCSDSCFSKFRANK [G12D],-0.311 ± 0.11
2,DATRCSICQKTEEVLHEVSNGSVVHRLCSDSCFSKFRANK [G12E],-0.083 ± 0.077
3,DATRCSICQKTFEVLHEVSNGSVVHRLCSDSCFSKFRANK [G12F],-0.414 ± 0.15
4,DATRCSICQKTHEVLHEVSNGSVVHRLCSDSCFSKFRANK [G12H],-0.215 ± 0.079
5,DATRCSICQKTIEVLHEVSNGSVVHRLCSDSCFSKFRANK [G12I],-0.21 ± 0.11
6,DATRCSICQKTLEVLHEVSNGSVVHRLCSDSCFSKFRANK [G12L],-0.245 ± 0.061
7,DATRCSICQKTMEVLHEVSNGSVVHRLCSDSCFSKFRANK [G12M],-0.089 ± 0.066
8,DATRCSICQKTNEVLHEVSNGSVVHRLCSDSCFSKFRANK [G12N],-0.511 ± 0.17
9,DATRCSICQKTPEVLHEVSNGSVVHRLCSDSCFSKFRANK [G12P],-0.639 ± 0.082
10,DATRCSICQKTQEVLHEVSNGSVVHRLCSDSCFSKFRANK [G12Q],-0.228 ± 0.066
11,DATRCSICQKTREVLHEVSNGSVVHRLCSDSCFSKFRANK [G12R],-0.165 ± 0.056
12,DATRCSICQKTSEVLHEVSNGSVVHRLCSDSCFSKFRANK [G12S],-0.115 ± 0.063
13,DATRCSICQKTTEVLHEVSNGSVVHRLCSDSCFSKFRANK [G12T],-0.092 ± 0.067
14,DATRCSICQKTVEVLHEVSNGSVVHRLCSDSCFSKFRANK [G12V],-0.137 ± 0.062
15,DATRCSICQKTWEVLHEVSNGSVVHRLCSDSCFSKFRANK [G12W],-0.639 ± 0.074
16,DATRCSICQKTGCVLHEVSNGSVVHRLCSDSCFSKFRANK [E13C],-0.855 ± 0.078
17,DATRCSICQKTGDVLHEVSNGSVVHRLCSDSCFSKFRANK [E13D],-0.2 ± 0.091
18,DATRCSICQKTGFVLHEVSNGSVVHRLCSDSCFSKFRANK [E13F],0.036 ± 0.1
19,DATRCSICQKTGGVLHEVSNGSVVHRLCSDSCFSKFRANK [E13G],-0.271 ± 0.056
20,DATRCSICQKTGHVLHEVSNGSVVHRLCSDSCFSKFRANK [E13H],-0.204 ± 0.091
21,DATRCSICQKTGIVLHEVSNGSVVHRLCSDSCFSKFRANK [E13I],-0.448 ± 0.11
